Data: article PMC11417369, “DNA sequence and chromatin differentiate sequence-specific transcription factor binding in the human malaria parasite Plasmodium falciparum”

B1: GTGCAC_site10007 (dsDNA)
DNA 1: TTTCTTTTTTCTTCAGTGCATTAAAATTAACAAAAG
DNA 2: CTTTTGTTAATTTTAATGCACTGAAGAAAAAAGAAA
B2: GTGCAC_site9437 (dsDNA)
DNA 1: CATTTTCATTTTAAGGTGCATTAATATTTATTTTAA
DNA 2: TTAAAATAAATATTAATGCACCTTAAAATGAAAATG
B3: GTGCAC_site9607 (dsDNA)
DNA 1: TATTCAGGTCCAATGGTGCAATATATTTTTGTAATA
DNA 2: TATTACAAAAATATATTGCACCATTGGACCTGAATA
B4: GTGCAC_site9463 (dsDNA)
DNA 1: ATTAAAAAATCCATAGTGCACTACGATAGGTTCCGA
DNA 2: TCGGAACCTATCGTAGTGCACTATGGATTTTTTAAT
B5: GTGCAC_site10298 (dsDNA)
DNA 1: ATTTATTTCTTGTTAGTGCACTTTCTTTGGTAAAAT
DNA 2: ATTTTACCAAAGAAAGTGCACTAACAAGAAATAAAT
B6: GTGCAC_site9711 (dsDNA)
DNA 1: TTAAATTATTAGAGAGTGCATTATATATATTATACA
DNA 2: TGTATAATATATATAATGCACTCTCTAATAATTTAA
B7: GTGCAC_site9879 (dsDNA)
DNA 1: TTTTTATTTTTAGTAGTGCATTAATCATATGGTCAT
DNA 2: ATGACCATATGATTAATGCACTACTAAAAATAAAAA
B8: GTGCAC_site10332 (dsDNA)
DNA 1: ATTACATTAATAAGAGTGCATTATATAAGTTTTATG
DNA 2: CATAAAACTTATATAATGCACTCTTATTAATGTAAT
B9: GTGCAC_site9852 (dsDNA)
DNA 1: ATAATATATAATATAGTGCATTATTTATTAATTAAT
DNA 2: ATTAATTAATAAATAATGCACTATATTATATATTAT
B10: GTGCAC_site9571 (dsDNA)
DNA 1: ATCATATTTATATTGGTGCATTATGCATGAAATTTA
DNA 2: TAAATTTCATGCATAATGCACCAATATAAATATGAT
B11: GTGCAC_site9493 (dsDNA)
DNA 1: TAAAATTATTAATGAGTGCATTATAAAATCTATATA
DNA 2: TATATAGATTTTATAATGCACTCATTAATAATTTTA
B12: GTGCAC_site9803 (dsDNA)
DNA 1: GTAGTAATAAATCTAGTGCATTATATATAACAAAAA
DNA 2: TTTTTGTTATATATAATGCACTAGATTTATTACTAC
B13: GTGCAC_site9883 (dsDNA)
DNA 1: ATTAAATGCAGTTCGGTGCATTAAGGTTATGATGAA
DNA 2: TTCATCATAACCTTAATGCACCGAACTGCATTTAAT
B14: GTGCAC_site9564 (dsDNA)
DNA 1: GAAAATTTAAAAAGAGTGCATTATATGTTTGAATAT
DNA 2: ATATTCAAACATATAATGCACTCTTTTTAAATTTTC
B15: GTGCAC_site9443 (dsDNA)
DNA 1: ACCATATATTAAAAAGTGCATTAAATATATAAATAT
DNA 2: ATATTTATATATTTAATGCACTTTTTAATATATGGT
B16: GTGCAC_site10150 (dsDNA)
DNA 1: TTTCCCTCAAATAAAGTGCATTATGATTTTAATTTA
DNA 2: TAAATTAAAATCATAATGCACTTTATTTGAGGGAAA
B17: GTGCAC_site10087 (dsDNA)
DNA 1: TGTCACTACAAATGAGTGCATTAAATAATTTGGAAA
DNA 2: TTTCCAAATTATTTAATGCACTCATTTGTAGTGACA
B18: GTGCAC_site9970 (dsDNA)
DNA 1: ACTGTAATATTGAAAGTGCATTAAAGTGTATATTAT
DNA 2: ATAATATACACTTTAATGCACTTTCAATATTACAGT
B19: GTGCAC_site10233 (dsDNA)
DNA 1: TTTTTTAAATTTAAAGTGCATTATTATATATTTGTA
DNA 2: TACAAATATATAATAATGCACTTTAAATTTAAAAAA
B20: GTGCAC_site10036 (dsDNA)
DNA 1: TCATAGGGGTAGAAGGTGCAATAAAAAAGAAGAAAA
DNA 2: TTTTCTTCTTTTTTATTGCACCTTCTACCCCTATGA
B21: GTGCAC_site10028 (dsDNA)
DNA 1: ATTATAATTACTCTAGTGCATTATAAATATGAATAA
DNA 2: TTATTCATATTTATAATGCACTAGAGTAATTATAAT
B22: GTGCAC_site10703 (dsDNA)
DNA 1: TTTTTAATTTCAATGGTGCAGTAATAATATAATAGT
DNA 2: ACTATTATATTATTACTGCACCATTGAAATTAAAAA
B23: GTGCAC_site10279 (dsDNA)
DNA 1: GCCAATAAAGATGTGGTGCATTATATATATATATAT
DNA 2: ATATATATATATATAATGCACCACATCTTTATTGGC
B24: GTGCAC_site10447 (dsDNA)
DNA 1: TAATGAGCGCTTGTAGTGCATTATATTCAAAAATAT
DNA 2: ATATTTTTGAATATAATGCACTACAAGCGCTCATTA
B25: GTGCAC_site10160 (dsDNA)
DNA 1: ATTCATTTACCAATGGTGCAATATATTTTTATAATG
DNA 2: CATTATAAAAATATATTGCACCATTGGTAAATGAAT
B26: GTGCAC_site9419 (dsDNA)
DNA 1: ATATAAAGTATGTTAGTGCACTTTTTTTTTTTTTTT
DNA 2: AAAAAAAAAAAAAAAGTGCACTAACATACTTTATAT
B27: GTGCAC_site9773 (dsDNA)
DNA 1: TTAAAAATTATATAAGTGCATTAATATTTAGAACAA
DNA 2: TTGTTCTAAATATTAATGCACTTATATAATTTTTAA
B28: GTGCAC_site10551 (dsDNA)
DNA 1: ATATATAAAAATTAGGTGCATTAAATTAAAATATAT
DNA 2: ATATATTTTAATTTAATGCACCTAATTTTTATATAT
B29: GTGCAC_site10158 (dsDNA)
DNA 1: AGGTTTTCTTAAATAGTGCATTATAACAAAAATAAA
DNA 2: TTTATTTTTGTTATAATGCACTATTTAAGAAAACCT
B30: GTGCAC_site10132 (dsDNA)
DNA 1: AGTGTGTGTAATAAAGTGCATTAAAAATGACACGTA
DNA 2: TACGTGTCATTTTTAATGCACTTTATTACACACACT
B31: GTGCAC_site9836 (dsDNA)
DNA 1: ATTATATACATTTTAGTGCATTACATAATAATATAA
DNA 2: TTATATTATTATGTAATGCACTAAAATGTATATAAT
B32: GTGCAC_site10763 (dsDNA)
DNA 1: AGGATAAAAGTTATGGTGCATTAACCTATTTAAATA
DNA 2: TATTTAAATAGGTTAATGCACCATAACTTTTATCCT

The binders below were run against AP2-I D3 (Plasmodium falciparum, UniProt Q8IJW6 910-1027) (assay: gcPBM; about 25 ug protein; PBS, 1% milk, 0.2 mg/ml BSA, salmon testes DNA, 0.03% Triton X-100). Conditions: tags: N-terminal GST (pGEX-4T-1), kept; label: surface-attached array probe.

Row | Binder | binding signal
1 | B1 | 12 ln median PBM intensity, better of two orientations
2 | B2 | 12.1 ln median PBM intensity, better of two orientations
3 | B3 | 12 ln median PBM intensity, better of two orientations
4 | B4 | 12.1 ln median PBM intensity, better of two orientations
5 | B5 | 12.1 ln median PBM intensity, better of two orientations
6 | B6 | 12.1 ln median PBM intensity, better of two orientations
7 | B7 | 12.1 ln median PBM intensity, better of two orientations
8 | B8 | 12.1 ln median PBM intensity, better of two orientations
9 | B9 | 12 ln median PBM intensity, better of two orientations
10 | B10 | 12.1 ln median PBM intensity, better of two orientations
11 | B11 | 12.1 ln median PBM intensity, better of two orientations
12 | B12 | 12 ln median PBM intensity, better of two orientations
13 | B13 | 12.1 ln median PBM intensity, better of two orientations
14 | B14 | 12 ln median PBM intensity, better of two orientations
15 | B15 | 12 ln median PBM intensity, better of two orientations
16 | B16 | 12 ln median PBM intensity, better of two orientations

Row | Binder | binding signal
17 | B17 | 12 ln median PBM intensity, better of two orientations
18 | B18 | 12 ln median PBM intensity, better of two orientations
19 | B19 | 12 ln median PBM intensity, better of two orientations
20 | B20 | 12 ln median PBM intensity, better of two orientations
21 | B21 | 12 ln median PBM intensity, better of two orientations
22 | B22 | 12 ln median PBM intensity, better of two orientations
23 | B23 | 12.1 ln median PBM intensity, better of two orientations
24 | B24 | 12 ln median PBM intensity, better of two orientations
25 | B25 | 12 ln median PBM intensity, better of two orientations
26 | B26 | 12.1 ln median PBM intensity, better of two orientations
27 | B27 | 12 ln median PBM intensity, better of two orientations
28 | B28 | 12 ln median PBM intensity, better of two orientations
29 | B29 | 12.1 ln median PBM intensity, better of two orientations
30 | B30 | 12 ln median PBM intensity, better of two orientations
31 | B31 | 12.1 ln median PBM intensity, better of two orientations
32 | B32 | 12.1 ln median PBM intensity, better of two orientations
